From PMC7393995

Target: CD162 (P-selectin glycoprotein ligand-1), mouse, on MLL-AF9 AML blasts (mouse (endogenous in murine MLL-AF9 AML blasts)) (UniProt Q62170)
Assay: flow cytometry on cells; E-selectin–IgM supernatant precomplexed with AF647 anti-human IgM F(ab)2, added to KIT+-enriched BM cells from leukemic mice (WT or Selplg-/- MLL-AF9 AML), 30 min on ice; gated on GFP+ KIT+ blasts; control: empty-vector IgM

UniProt Q62170, sequence (Q62170 42-397): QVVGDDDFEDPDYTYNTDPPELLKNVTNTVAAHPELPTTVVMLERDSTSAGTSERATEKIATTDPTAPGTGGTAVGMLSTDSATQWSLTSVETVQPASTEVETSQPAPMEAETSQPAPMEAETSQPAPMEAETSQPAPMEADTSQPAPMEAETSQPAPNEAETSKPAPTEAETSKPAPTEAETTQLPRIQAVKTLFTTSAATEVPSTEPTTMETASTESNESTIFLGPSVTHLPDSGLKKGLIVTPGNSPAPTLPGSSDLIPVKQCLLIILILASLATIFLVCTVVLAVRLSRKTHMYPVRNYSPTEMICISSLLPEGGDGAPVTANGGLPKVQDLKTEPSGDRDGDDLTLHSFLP

- percent of gated AML blasts that bound E-selectin–IgM: 65%
Substance: recombinant E-selectin–human-IgM fusion protein (from UniProt P16581 22-610)
